± gives the standard deviation of the averaged measurements.
test system: Saccharomyces cerevisiae; test: protein stability index of tFT-peptide fusion (C-terminal peptide) (PSI (0-1 scale)); higher = more stable (slower turnover); conditions: genetic background: wild type; temperature: 30 C
Protocol: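 Multiplexed protein stability (MPS) profiling in S. cerevisiae. Random 12-aa peptides (tFT-X12 library) are fused to the C-terminus of a sfGFP-mCherry tandem fluorescent timer, after mCherry and a GGGS linker. Cells are FACS-sorted into 8 mCherry/sfGFP bins and deep-sequenced. The protein stability index (PSI) is the read-weighted bin average, scaled from 0 (unstable) to 1 (stable). Only peptides with >10 reads are reported; cells were grown at 30 °C in SC-His with glucose.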
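Note: PSI is a weighted mean of sequencing reads over stability bins, variants kept only with over 10 reads, mCherry proximal and sfGFP distal, peptide attached via GGGS linker.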

Q: For HCFCFSVSSFFG, which protein stability index is on record?
A: 0.667 ± 0.026

Q: How did the protein stability index turn out when VLSSSPFLHFGC was run?
A: 0.663 ± 0.072

Q: EDSGRPGRPSTH was tested. Which protein stability index did it give?
A: 0.662 ± 0.048

Q: With LRQALGRSEEPQ as the sequence, how does the protein stability index read?
A: 0.6728 ± 0.0065

Q: How did the protein stability index turn out when VGYGRGGAVGVE was run?
A: 0.695 ± 0.012

Q: LPSPLPPPAWTP was tested. Which protein stability index did it give?
A: 0.735 ± 0.029

Q: With GVEDRFGGSCGL as the sequence, how does the protein stability index read?
A: 0.639 ± 0.049

Q: How did the protein stability index turn out when LVLFSRCSPFFL was run?
A: 0.659 ± 0.024

Q: With FTARAGRLQSVF as the sequence, how does the protein stability index read?
A: 0.627 ± 0.0097

Q: LSFGPISGTPFR was tested. Which protein stability index did it give?
A: 0.661 ± 0.048

Q: Which protein stability index does the source give for AALHPLRISASV here?
A: 0.646 ± 0.081

Q: SYKIDYIDIRVG was tested. Which protein stability index did it give?
A: 0.59 ± 0.029

Q: For NLQKTRNRRTVE, which protein stability index is on record?
A: 0.643 ± 0.011

Q: PSDYDCHRKTFS was tested. Which protein stability index did it give?
A: 0.738 ± 0.01

Q: For AKQVVGASWIVA, which protein stability index is on record?
A: 0.607 ± 0.044

Q: With GGEGAAWAGGVG as the sequence, how does the protein stability index read?
A: 0.558 ± 0.028

Q: SPADALPLPGCG was tested. Which protein stability index did it give?
A: 0.707 ± 0.05

Q: How did the protein stability index turn out when VDCYIFPGIGAL was run?
A: 0.701 ± 0.041

Q: YRLVASSHLIFF was tested. Which protein stability index did it give?
A: 0.661 ± 0.027

Q: Which protein stability index does the source give for TPPPAPRPPLPS here?
A: 0.719 ± 0.069

Q: With FFSRFCYGFGRM as the sequence, how does the protein stability index read?
A: 0.723 ± 0.066

Q: How did the protein stability index turn out when LFGPRCTSSSAV was run?
A: 0.689 ± 0.015

Q: For LRLLLLVLPTCF, which protein stability index is on record?
A: 0.527 ± 0.02

Q: For VRRWGKWSIVGW, which protein stability index is on record?
A: 0.736 ± 0.03

Q: With VVKFLALIPLSP as the sequence, how does the protein stability index read?
A: 0.583 ± 0.01

Q: How did the protein stability index turn out when GGFPVGLVSGFC was run?
A: 0.641 ± 0.032

Q: How did the protein stability index turn out when PPSPYNPPSTAN was run?
A: 0.722 ± 0.0091

Q: For WGREGRVPGWAG, which protein stability index is on record?
A: 0.671 ± 0.11

Q: Which protein stability index does the source give for PLPLPPPFILPT here?
A: 0.646 ± 0.052

Q: For RASLPKSLPVSY, which protein stability index is on record?
A: 0.604 ± 0.07

Q: For PPSASLAPFLSP, which protein stability index is on record?
A: 0.722 ± 0.12

Q: Which protein stability index does the source give for LYDAALHTKIFR here?
A: 0.634 ± 0.012

Q: How did the protein stability index turn out when SPALLAPPFSPS was run?
A: 0.68455 ± 0.00067

Q: GKKKKKERKHGA was tested. Which protein stability index did it give?
A: 0.7351 ± 0.0055

Q: How did the protein stability index turn out when PLGVGLVDGEAP was run?
A: 0.715 ± 0.072

Q: How did the protein stability index turn out when SDRSLPGVPVRF was run?
A: 0.7234 ± 0.0048

Q: For VSSVEHCLGHCR, which protein stability index is on record?
A: 0.738 ± 0.11

Q: IWLAFCTLRPVS was tested. Which protein stability index did it give?
A: 0.591 ± 0.027

Q: How did the protein stability index turn out when RHYLWAECGSSE was run?
A: 0.709 ± 0.017

Q: VGDVGESMWGLG was tested. Which protein stability index did it give?
A: 0.727 ± 0.091

Q: SKRCNNNRNTSN was tested. Which protein stability index did it give?
A: 0.69 ± 0.044

Q: For LDYDTTNSMWLS, which protein stability index is on record?
A: 0.586 ± 0.09

Q: With SSPPRPLPPHHT as the sequence, how does the protein stability index read?
A: 0.705 ± 0.059

Q: With YNRQVDFECHKF as the sequence, how does the protein stability index read?
A: 0.698 ± 0.044

Q: RAPCSLDFRGNA was tested. Which protein stability index did it give?
A: 0.758 ± 0.12

Q: FVPMDFILKFSR was tested. Which protein stability index did it give?
A: 0.699 ± 0.033

Q: Which protein stability index does the source give for SEAHMGWRGGEK here?
A: 0.643 ± 0.1

Q: For GTSPGREFYWHK, which protein stability index is on record?
A: 0.702 ± 0.033

Q: For TNYWDRGSIQPK, which protein stability index is on record?
A: 0.668 ± 0.021

Q: NKIVKYSKIRYK was tested. Which protein stability index did it give?
A: 0.678 ± 0.018

Q: EGGLKIRRSRDE was tested. Which protein stability index did it give?
A: 0.657 ± 0.024

Q: KKRVSKETDKVK was tested. Which protein stability index did it give?
A: 0.693 ± 0.027

Q: For HSLRRLSLYVSL, which protein stability index is on record?
A: 0.612 ± 0.086

Q: NGTGGGSSLAFG was tested. Which protein stability index did it give?
A: 0.644 ± 0.019

Q: Which protein stability index does the source give for SLYQPLSPTPPE here?
A: 0.74 ± 0.064

Q: With WYMKFYNKKMKE as the sequence, how does the protein stability index read?
A: 0.702 ± 0.04

Q: Which protein stability index does the source give for PVPSRAQTRSRA here?
A: 0.65 ± 0.073

Q: With PPLYPPPRDLPP as the sequence, how does the protein stability index read?
A: 0.5453 ± 0.0038

Q: For EEMEKRNREKEL, which protein stability index is on record?
A: 0.691 ± 0.094

Q: Which protein stability index does the source give for VLGGLGWVCWVV here?
A: 0.531 ± 0.013

Q: Which protein stability index does the source give for PPPPPLQRFPPF here?
A: 0.644 ± 0.046

Q: With CTGISVFYLFGD as the sequence, how does the protein stability index read?
A: 0.66 ± 0.033

Q: For GGASGGAGEGVG, which protein stability index is on record?
A: 0.623 ± 0.063

Q: For ISFFLLYFPPSY, which protein stability index is on record?
A: 0.59 ± 0.024

Q: For LLSGRDAACRGG, which protein stability index is on record?
A: 0.663 ± 0.027

Q: With KRVSGSEQDIAT as the sequence, how does the protein stability index read?
A: 0.6561 ± 0.0026

Q: For GFFRGMLEGINA, which protein stability index is on record?
A: 0.726 ± 0.073

Q: For RVMPRVNDKKGI, which protein stability index is on record?
A: 0.732 ± 0.092

Q: For QGWDGSRRRPGL, which protein stability index is on record?
A: 0.706 ± 0.031

Q: LPPLAPASHHLC was tested. Which protein stability index did it give?
A: 0.493 ± 0.016

Q: How did the protein stability index turn out when GGRGAGSDVGSL was run?
A: 0.677 ± 0.04

Q: SEDGPTPAPSTD was tested. Which protein stability index did it give?
A: 0.71 ± 0.059

Q: For KKIRKKLKKMKM, which protein stability index is on record?
A: 0.644 ± 0.053

Q: VIGSKQERRAEK was tested. Which protein stability index did it give?
A: 0.6905 ± 0.0016

Q: For AGLPEKARDRGS, which protein stability index is on record?
A: 0.638 ± 0.045

Q: How did the protein stability index turn out when GYLVECKRLCVW was run?
A: 0.588 ± 0.024

Q: AVVRTVVCLNVL was tested. Which protein stability index did it give?
A: 0.573 ± 0.013

Q: Which protein stability index does the source give for TRLVYFYLGRDI here?
A: 0.656 ± 0.054

Q: SYKAFVFSSDVW was tested. Which protein stability index did it give?
A: 0.77 ± 0.045

Q: For CCTPSFANVRDG, which protein stability index is on record?
A: 0.6998 ± 0.0027

Q: Which protein stability index does the source give for HAPSRAPFPTAS here?
A: 0.71 ± 0.067

Q: How did the protein stability index turn out when NGPYKAGSIVLI was run?
A: 0.664 ± 0.027

Q: With CYRWVLGVDARV as the sequence, how does the protein stability index read?
A: 0.649 ± 0.012

Q: With VLLEGCQSYVIW as the sequence, how does the protein stability index read?
A: 0.652 ± 0.03

Q: NKKKKENTKKRK was tested. Which protein stability index did it give?
A: 0.721 ± 0.18

Q: ILGGRIRLVGRK was tested. Which protein stability index did it give?
A: 0.708 ± 0.033

Q: With GRRMRGAEKQKK as the sequence, how does the protein stability index read?
A: 0.829 ± 0.16

Q: RCCGGSEVVRAG was tested. Which protein stability index did it give?
A: 0.705 ± 0.014

Q: For GVGGRGVGAGGG, which protein stability index is on record?
A: 0.662 ± 0.055

Q: How did the protein stability index turn out when YSIIYATGMRIL was run?
A: 0.626 ± 0.07

Q: Which protein stability index does the source give for LGGLLLCLGLSG here?
A: 0.674 ± 0.058

Q: How did the protein stability index turn out when PADAPPPTRPEA was run?
A: 0.724 ± 0.032

Q: STALVFSDSALL was tested. Which protein stability index did it give?
A: 0.694 ± 0.061

Q: Which protein stability index does the source give for MRRKKSGPEYQR here?
A: 0.678 ± 0.059

Q: How did the protein stability index turn out when RGPRVVYYRLYV was run?
A: 0.722 ± 0.12

Q: For YHECWRTFTLCV, which protein stability index is on record?
A: 0.532 ± 0.007

Q: For FFDPPPSLSALI, which protein stability index is on record?
A: 0.7724 ± 0.0037

Q: How did the protein stability index turn out when KKEKYIQIRTID was run?
A: 0.627 ± 0.033

From the supplement of paper PMC10724198
